These results are taken from patent US20230000950A1, “COMPOSITION COMPRISING GLUCAGON AND GLP-1 AND GIP RECEPTOR DUAL AGONIST AND THERAPEUTIC USE OF SAME” (HANMI PHARM. CO., LTD., priority 2019, published 2023).

Positions of bridges follow the written chain, without caps; N, C: chain ends. Non-standard residues stand in square brackets, D forms with d. No end group written: not given here. Aib = CC(C)(N)C(=O)O A value given as a limit tells only on which side of the number the result lay.

System in the first data set: not given
Experiment: not given
To be noted: in vivo; cited from earlier work.
Consider contrave, for which the side effects entry is listed as “cardiovascular side effects”.

Still in this data set, the particulars now being: reported; cited from earlier work.
As to `Cc1c(C(=O)NN2CCCCC2)nn(-c2ccc(Cl)cc2Cl)c1-c1ccc(Cl)cc1` [rimonabant], the side effects result is listed as “central nervous system side effects”.
In the case of `CC(C)CC(N(C)C)C1(c2ccc(Cl)cc2)CCC1` (centres unmarked) [sibutramine], the side effects entry is listed as “cardiovascular side effects”.

Staying with this data set, now noted: taken for one year; cited from earlier work.
With `CCCCCCCCCCC[C@@H](C[C@@H]1OC(=O)[C@H]1CCCCCC)OC(=O)[C@H](CC(C)C)NC=O` [orlistat], the “body weight loss effect” value is on record as “about 4 kg”.

For a further data set, the target named is human glucagon receptor (human, UniProt P47871 26-477). The data set is described as follows: cell-based or functional assay.
Chain of human glucagon receptor (P47871 26-477): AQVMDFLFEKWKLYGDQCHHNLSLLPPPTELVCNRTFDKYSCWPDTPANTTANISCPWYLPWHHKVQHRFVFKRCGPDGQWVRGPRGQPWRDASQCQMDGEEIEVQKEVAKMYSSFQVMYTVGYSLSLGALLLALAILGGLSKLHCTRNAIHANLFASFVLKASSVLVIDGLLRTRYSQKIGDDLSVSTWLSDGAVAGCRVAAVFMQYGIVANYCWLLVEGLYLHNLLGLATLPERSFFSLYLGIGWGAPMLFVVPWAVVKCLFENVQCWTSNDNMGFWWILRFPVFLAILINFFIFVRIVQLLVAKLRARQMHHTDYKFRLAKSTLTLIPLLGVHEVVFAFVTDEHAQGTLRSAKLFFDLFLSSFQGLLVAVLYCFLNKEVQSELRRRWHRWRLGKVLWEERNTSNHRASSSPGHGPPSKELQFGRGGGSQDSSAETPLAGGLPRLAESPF
Details: not given
Turning to Y[Aib]QGTFTSDYSKYLDEKRAKEFVQWLMNTC (lactam 16-20) [glucagon derivative of SEQ ID NO: 12], the “In vitro activity (relative activity to SEQ ID NO: 1, %), cAMP assay, from EC50” value stood at 56.3%.
The same measure, in the same setting: in the case of W[Aib]QGTFTSDYSKYLDECRAKDFVQWLMNT (lactam 16-20) [glucagon derivative of SEQ ID NO: 26] it was 1%.
Still for that read-out and setting: to Y[Aib]QGTFTSDYSCYLDEKRAKEFVQWLMNT [glucagon derivative of SEQ ID NO: 45] belongs 5.2%; to Y[Aib]QGTFTSDYSKCLDEKRAKEFVQWLMNT (lactam 16-20) [glucagon derivative of SEQ ID NO: 24], 58%; to Y[Aib]QGTFVSDYSKYLDECRAKDFVQWLMNT (lactam 16-20) [glucagon derivative of SEQ ID NO: 27], 93.6%.
For the molecule SQGTFTSDYSKYLDECRAKEFVQWLMNT (lactam 15-19) [glucagon derivative of SEQ ID NO: 32], the “In vitro activity (relative activity to SEQ ID NO: 1, %), cAMP assay, from EC50” value was 0.7%.
Same read-out and setting: to HSQGTFTSDYSKYLDSCEADDFVQWLMNT [glucagon derivative of SEQ ID NO: 6] belongs less than 0.1%; to Y[Aib]QGTFTSDYSKYLDCKRAKEFVQWLMNT (lactam 17-21) [glucagon derivative of SEQ ID NO: 31], 6.3%.
Same read-out and setting: in the case of Y[Aib]QGTFTSDCSKYLDERRAKEFVQWLMNT (lactam 16-20) [glucagon derivative of SEQ ID NO: 36] it was 9.9%; in that of Y[Aib]QGTFTSDYSKYLDSCDADDFVVWLINT [glucagon derivative of SEQ ID NO: 10], less than 0.1%; in that of Y[Aib]QGTFTSDYSKYCDERRAKEFVQWLMNT (lactam 16-20) [glucagon derivative of SEQ ID NO: 35], 17.7%.
The same measure, in the same setting: in the case of Y[Aib]QGTFTSDYSKCLDERRAKDFVQWLMNT (lactam 16-20) [glucagon derivative of SEQ ID NO: 29] it was 61.3%; in that of Y[Aib]QGTFVSDYSKYLDERRAKDFVQWLMNTC (lactam 16-20) [glucagon derivative of SEQ ID NO: 40], 40.8%.
Consider Y[Aib]QGTFCSDYSKYLDSRRAQDFVQWLMNT [glucagon derivative of SEQ ID NO: 42], for which the “In vitro activity (relative activity to SEQ ID NO: 1, %), cAMP assay, from EC50” value turned out to be 37.9%.
As to Y[Aib]QGTFTSDYSKYLDEKRCKEFVQWLMNT (lactam 16-20) [glucagon derivative of SEQ ID NO: 22], the “In vitro activity (relative activity to SEQ ID NO: 1, %), cAMP assay, from EC50” value was determined as 148%.
On the same count and under the same terms, to Y[Aib]QGTFTSDYSKYCDEKRAKEFVQWLMNT (lactam 16-20) [glucagon derivative of SEQ ID NO: 23] belongs 76.8%; to HSQGTFTSDYSKYLDSCDAQDFVQWLMNT [glucagon derivative of SEQ ID NO: 4], less than 0.1%.
Consider Y[Aib]QGTFTSDYSKYLDSCDAQDFVVWLINT [glucagon derivative of SEQ ID NO: 9], for which the “In vitro activity (relative activity to SEQ ID NO: 1, %), cAMP assay, from EC50” value was less than 0.1%.
Same read-out and setting: to W[Aib]QGTFTSDYSKCLDERRAKDFVQWLMNT (lactam 16-20) [glucagon derivative of SEQ ID NO: 30] belongs 0.3%; to Y[Aib]QGTFTSDCSKYLDSRRAQDFVQWLMNT [glucagon derivative of SEQ ID NO: 43], 1.6%.
On the same count and under the same terms, to Y[Aib]QGTFTSDYSKYLDCVRAQDFVQWLMRT [glucagon derivative of SEQ ID NO: 17] belongs 23.2%.
On the same count and under the same terms, to W[Aib]QGTFVSDYSKYLDECRAKDFVQWLMNT (lactam 16-20) [glucagon derivative of SEQ ID NO: 28] belongs less than 0.1%; to Y[Aib]QGTFTSDYSKYLCEKRAKEFVQWLMNT (lactam 16-20) [glucagon derivative of SEQ ID NO: 19], 12.1%; to YSQGTFTSDYSKYLDSCEADDFVQWLMNT [glucagon derivative of SEQ ID NO: 7], less than 0.1%.
As for Y[Aib]QGTFTSDYSKYLDSRRACDFRLWLMNT [glucagon derivative of SEQ ID NO: 18], the “In vitro activity (relative activity to SEQ ID NO: 1, %), cAMP assay, from EC50” value is less than 0.1%.
On the same count and under the same terms, in the case of Y[Aib]QGTFTSDYSKYLDCRRAQVFVQWLMRT [glucagon derivative of SEQ ID NO: 16] it was 4.2%; in that of YXQGTFTSDYSKYLDSRRAQDFVQWLMNTC (X at position 2 = aminoisobutyric acid (Aib)) [glucagon derivative of SEQ ID NO: 44], 75.4%; in that of Y[Aib]QGTFTSDYSCYLDSRRAQDFVQWLMNT [glucagon derivative of SEQ ID NO: 13], 5.2%.
Same read-out and setting: to Y[Aib]QGTFTSDYSKYLDERRAKEFVQWLMNTC (lactam 16-20) [glucagon derivative of SEQ ID NO: 37] belongs 226%; to Y[Aib]QGTFCSDYSKYLDERRAKEFVQWLMNT (lactam 16-20) [glucagon derivative of SEQ ID NO: 38], 167%.
For the molecule Y[Aib]QGTFTSDYSKYLDEKCAKEFVQWLMNT (lactam 16-20) [glucagon derivative of SEQ ID NO: 21], the “In vitro activity (relative activity to SEQ ID NO: 1, %), cAMP assay, from EC50” value is 57.8%.
On the same count and under the same terms, to Y[Aib]QGTFTSDYSKYLDSCDAQDFVQWLINT [glucagon derivative of SEQ ID NO: 8] belongs less than 0.1%.
The same measure, in the same setting: in the case of Y[Aib]QGTFVSDCSKYLDERRAKDFVQWLMNT (lactam 16-20) [glucagon derivative of SEQ ID NO: 39] it was 3.7%; in that of Y[Aib]QGTFCSDYSKYLDERRAKDFVQWLMNT (lactam 16-20) [glucagon derivative of SEQ ID NO: 41], 45.2%; in that of HSQGTFTSDYSKYLDCDRAQDFVQWLMNT [glucagon derivative of SEQ ID NO: 2], 0.6%.
The same measure, in the same setting: in the case of W[Aib]QGTFTSDYSKYCDERRAKEFVQWLMNT (lactam 16-20) [glucagon derivative of SEQ ID NO: 34] it was 0.2%; in that of YXQGTFTSDYSKYLDSRRAQDFVQWLMNT (X at position 2 = aminoisobutyric acid (Aib)) [glucagon derivative of SEQ ID NO: 33], 108%; in that of HSQGTFTSDYSKYLDSCEAQDFVQWLMNT [glucagon derivative of SEQ ID NO: 5], 0.3%.
Turning to Y[Aib]QGTFTSDYSKYLDEKRAKCFVQWLMNT (lactam 16-20) [glucagon derivative of SEQ ID NO: 25], the “In vitro activity (relative activity to SEQ ID NO: 1, %), cAMP assay, from EC50” value was found to be 46.9%.
On to Y[Aib]QGTFTSDYSKYLDECRAKEFVQWLMNT (lactam 16-20) [glucagon derivative of SEQ ID NO: 20], for which the “In vitro activity (relative activity to SEQ ID NO: 1, %), cAMP assay, from EC50” value was 300%.
Take Y[Aib]QGTFTSDYSKYLDEKCAKEFVQWLMNT [glucagon derivative of SEQ ID NO: 11]: the “In vitro activity (relative activity to SEQ ID NO: 1, %), cAMP assay, from EC50” value worked out at 4.6%.
Y[Aib]QGTFTSDYSKYLDCKRAKEFVQWLMNT [glucagon derivative of SEQ ID NO: 14]: the “In vitro activity (relative activity to SEQ ID NO: 1, %), cAMP assay, from EC50” value turned out to be 18.1%.
Still for that read-out and setting: to HSQGTFTSDYSKYLDCERAQDFVQWLMNT [glucagon derivative of SEQ ID NO: 3] belongs 6.1%.
